Data: PMC1669761 (Nucleic Acids Research, 2006)

Biological target: T1, purified His-tagged Smad4 (human, UniProt Q13485 1-552)
T1 sequence (looked up): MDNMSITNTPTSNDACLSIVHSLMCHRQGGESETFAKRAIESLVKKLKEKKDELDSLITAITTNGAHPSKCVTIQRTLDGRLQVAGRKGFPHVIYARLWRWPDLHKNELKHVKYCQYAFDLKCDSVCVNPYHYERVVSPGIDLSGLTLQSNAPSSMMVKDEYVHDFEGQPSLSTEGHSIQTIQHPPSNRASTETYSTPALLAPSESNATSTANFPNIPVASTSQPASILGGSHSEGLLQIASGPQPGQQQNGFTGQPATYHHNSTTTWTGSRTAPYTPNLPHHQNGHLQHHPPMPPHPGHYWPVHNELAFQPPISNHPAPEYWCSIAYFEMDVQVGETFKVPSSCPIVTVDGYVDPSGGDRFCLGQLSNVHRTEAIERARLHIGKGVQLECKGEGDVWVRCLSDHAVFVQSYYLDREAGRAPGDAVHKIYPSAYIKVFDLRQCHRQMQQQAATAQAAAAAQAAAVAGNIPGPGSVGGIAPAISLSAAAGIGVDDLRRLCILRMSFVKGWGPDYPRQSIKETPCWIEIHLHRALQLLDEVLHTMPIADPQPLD
Test: pull-down

binding result: binds
B1: GST-RBPMS(1–100) (domain or fragment)
chain: not shown
